Each substance was assayed against HLA-A*02:01 (Homo sapiens, UniProt P04439, D140Y/D185E/D98H/E176V/E277Q/G131W/G231S/I119V/I121R/I166T/I218V/L300P/L318F/N151K/N90K/P208A/P217A/Q86G/Q94H/R138H/R169H/T345S) (assay: MHC binding assay (UV-ligand exchange, ELISA, peptide exchange yield)). Settings: binding of HLA-class I restricted peptides to HLA-A*02:01.
Source text: Candidate peptides for T cell based therapies according to the present invention were further tested for their MHC binding capacity (affinity). The individual peptide-MHC complexes were produced by UV-ligand exchange, where a UV-sensitive peptide is cleaved upon UV-irradiation, and exchanged with the peptide of interest as analyzed. Only peptide candidates that can effectively bind and stabilize the peptide-receptive MHC molecules prevent dissociation of the MHC complexes. To determine the yield of the exchange reaction, an ELISA was performed based on the detection of the light chain ([…]) of stabilized MHC complexes. The assay was performed as generally described in Rodenko et al. (Rodenko et al., 2006).
96 well MAXISorp plates (NUNC) were coated over night with 2-ug/ml streptavidin in PBS at room temperature, washed 4× and blocked for 1 h at 37° C. in 2% BSA containing blocking buffer. […] Peptide-MHC monomers of the UV-exchange reaction were diluted 100 fold in blocking buffer. Samples were incubated for 1 h at 37° C., washed four times, incubated with 2-ug/ml HRP conjugated anti-β2m for 1 h at 37° C., washed again and detected with TMB solution that is stopped with […]. Absorption was measured at 450 nm. Candidate peptides that show a high exchange yield (preferably higher than 50%, most preferred higher than 75%) are generally preferred for a generation and production of antibodies or fragments thereof, and/or T cell receptors or fragments thereof, as they show sufficient avidity to the MHC molecules and prevent dissociation of the MHC complexes.

Peptide exchange (MHC class I binding score, peptide exchange yield), ″++++″ (≥75% = ++++):
303 (AILPQLFMV; listed as Homo sapiens) [compound 303]
108 (ALFPGVALLLA; listed as Homo sapiens) [compound 108]
61 (FLQGYQLHL; listed as Homo sapiens) [compound 61]

Peptide exchange (MHC class I binding score, peptide exchange yield), ″+++″ (≥50% = +++):
439 (YLLQEIYGI; listed as Homo sapiens) [compound 439]
288 (NLINEINGV; listed as Homo sapiens) [compound 288]
144 (YIMEPSIFNTL; listed as Homo sapiens) [compound 144]
547 (TLDITPHTV; listed as Homo sapiens) [compound 547]
155 (RVANLHFPSV; listed as Homo sapiens) [compound 155]
433 (AMLNEPWAV; listed as Homo sapiens) [compound 433]
391 (YVYPQRLNFV; listed as Homo sapiens) [compound 391]
330 (QLALKVEGV; listed as Homo sapiens) [compound 330]
201 (RLVDYLEGI; listed as Homo sapiens) [compound 201]
473 (AMATESILHFA; listed as Homo sapiens) [compound 473]
195 (GLFADLLPRL; listed as Homo sapiens) [compound 195]
30 (LILDWVPYI; listed as Homo sapiens) [compound 30]
311 (RLYTGMHTV; listed as Homo sapiens) [compound 311]
246 (LLWEVVSQL; listed as Homo sapiens) [compound 246]
161 (ALLEGVNTV; listed as Homo sapiens) [compound 161]
301 (FLVEDLVDSL; listed as Homo sapiens) [compound 301]
543 (GLLPTPITQQASL; listed as Homo sapiens) [compound 543]
26 (ALLELAEEL; listed as Homo sapiens) [compound 26]
267 (ALQDFLLSV; listed as Homo sapiens) [compound 267]
175 (YLFENISQL; listed as Homo sapiens) [compound 175]
476 (ALMERTGYSMV; listed as Homo sapiens) [compound 476]
612 (YLYNEGLSV; listed as Homo sapiens) [compound 612]
34 (ILVEADSLWVV; listed as Homo sapiens) [compound 34]
72 (SLLELDGINL; listed as Homo sapiens) [compound 72]
73 (NIFDLQIYV; listed as Homo sapiens) [compound 73]
132 (LLVEQPPLAGV; listed as Homo sapiens) [compound 132]
503 (SLNHFTHSV; listed as Homo sapiens) [compound 503]
160 (FLFDEEIEQI; listed as Homo sapiens) [compound 160]
331 (KVDTVWVNV; listed as Homo sapiens) [compound 331]
16 (VLFQGQASL; listed as Homo sapiens) [compound 16]
394 (LLAVIGGLVYL; listed as Homo sapiens) [compound 394]
594 (IMLKGDNITL; listed as Homo sapiens) [compound 594]
575 (YLISQVEGHQV; listed as Homo sapiens) [compound 575]
344 (YLQDQHLLLTV; listed as Homo sapiens) [compound 344]
6 (VLVSDGVHSV; listed as Homo sapiens) [compound 6]
335 (YSLSSVVTV; listed as Homo sapiens) [compound 335]
549 (AMLENASDIKL; listed as Homo sapiens) [compound 549]
492 (SLFDGFADGLGV; listed as Homo sapiens) [compound 492]

Peptide exchange (MHC class I binding score, peptide exchange yield), ″++″ (≥20% = ++):
318 (GLINTGVLSV; listed as Homo sapiens) [compound 318]
191 (LLQEGQALEYV; listed as Homo sapiens) [compound 191]
154 (ALDDGTPAL; listed as Homo sapiens) [compound 154]
440 (ALADGVTMQV; listed as Homo sapiens) [compound 440]
275 (YLVYILNEL; listed as Homo sapiens) [compound 275]
233 (VLSETLYEL; listed as Homo sapiens) [compound 233]
505 (SLAPGDVVRQV; listed as Homo sapiens) [compound 505]
377 (FLLDSSASV; listed as Homo sapiens) [compound 377]
453 (KLLEATSAV; listed as Homo sapiens) [compound 453]
429 (GLVNDLARV; listed as Homo sapiens) [compound 429]
494 (ALQPEPIKV; listed as Homo sapiens) [compound 494]
333 (FLPDANSSV; listed as Homo sapiens) [compound 333]
513 (SLWPSPEQL; listed as Homo sapiens) [compound 513]
226 (MLYVVPIYL; listed as Homo sapiens) [compound 226]
526 (RLAEVGQYEQV; listed as Homo sapiens) [compound 526]
373 (SLLEDKGLAEV; listed as Homo sapiens) [compound 373]
99 (ALVSKGLATV; listed as Homo sapiens) [compound 99]
491 (GLNDRSDAV; listed as Homo sapiens) [compound 491]
363 (KVLDVSDLESV; listed as Homo sapiens) [compound 363]
382 (ALQNYIKEA; listed as Homo sapiens) [compound 382]

From patent publication US10227388B2, “Peptides and combination of peptides for use in immunotherapy against non-small cell lung cancer and other cancers” (immatics biotechnologies GmbH, priority 2015, dated 2019)
